Reference: patent publication US20180298404A1

Legend:
[1] = biological target: Mamu-E*02:04, single transfectant (rhesus macaque); test: cell-based or functional assay
[2] = biological target: Mamu-E*02:20, single transfectant (rhesus macaque); test: cell-based or functional assay

Row | Substance | peptide dose pulsed on the transfectant that triggers CD8+ T cells (ICS) [1] | peptide dose pulsed on the transfectant that triggers CD8+ T cells (ICS) [2]
1 | SIVgag259-267 optimal 9mer peptide | < 1 nM | < 1 nM
2 | SIVgag276-284 optimal 9mer peptide | < 1 nM | < 1 nM
3 | SIVgag476-484 optimal 9mer peptide | < 1 nM | < 1 nM
4 | SIVgag482-490 optimal 9mer peptide | < 1 nM | < 1 nM
